Laboratory results published in PMC9482650, “Quantitative fragmentomics allow affinity mapping of interactomes” (Nature Communications, 2022).

T1: ARHGEF11, O15085
T1 sequence (O15085 42-136, limits assumed, looked up): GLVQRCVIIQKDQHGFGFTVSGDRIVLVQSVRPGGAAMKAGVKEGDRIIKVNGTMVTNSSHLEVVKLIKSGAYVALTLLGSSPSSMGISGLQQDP

T2: DLG3_2, Q92796
T2 sequence (Q92796 221-321, limits assumed, looked up): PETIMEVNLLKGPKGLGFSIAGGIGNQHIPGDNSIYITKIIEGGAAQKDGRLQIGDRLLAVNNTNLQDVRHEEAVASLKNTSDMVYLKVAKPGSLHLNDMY

T3: FRMPD1, Q5SYB0
T3 sequence (Q5SYB0 52-145, limits assumed, looked up): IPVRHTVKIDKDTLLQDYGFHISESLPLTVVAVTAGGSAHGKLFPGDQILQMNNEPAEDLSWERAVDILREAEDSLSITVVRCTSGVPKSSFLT

T4: LIN7A, O14910
T4 sequence (O14910 103-200, limits assumed, looked up): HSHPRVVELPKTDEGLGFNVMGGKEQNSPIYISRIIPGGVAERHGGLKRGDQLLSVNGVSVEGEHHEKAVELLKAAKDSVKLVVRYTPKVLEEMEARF

T5: MPDZ_12, O75970
T5 sequence (O75970 1857-1958, limits assumed, looked up): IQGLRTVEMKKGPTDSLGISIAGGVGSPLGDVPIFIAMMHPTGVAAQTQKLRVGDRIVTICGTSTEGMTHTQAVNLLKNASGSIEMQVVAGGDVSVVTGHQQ

T6: PCLO, Q9Y6V0
T6 sequence (Q9Y6V0 4491-4600, limits assumed, looked up): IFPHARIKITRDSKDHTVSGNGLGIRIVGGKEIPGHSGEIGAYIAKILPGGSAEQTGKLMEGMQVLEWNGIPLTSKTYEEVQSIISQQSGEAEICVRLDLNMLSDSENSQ

T7: PTPN13_1, Q12923
T7 sequence (Q12923 1088-1188, limits assumed, looked up): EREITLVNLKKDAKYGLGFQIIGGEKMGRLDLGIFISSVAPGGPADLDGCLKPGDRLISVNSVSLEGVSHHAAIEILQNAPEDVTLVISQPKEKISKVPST

T8: SHANK1, Q9Y566
T8 sequence (Q9Y566 658-767, limits assumed, looked up): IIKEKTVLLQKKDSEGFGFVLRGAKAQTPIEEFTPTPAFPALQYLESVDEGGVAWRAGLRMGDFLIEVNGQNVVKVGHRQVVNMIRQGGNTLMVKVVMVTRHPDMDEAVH

T9: TX1BP3, O14907
T9 sequence (O14907 10-122, limits assumed, looked up): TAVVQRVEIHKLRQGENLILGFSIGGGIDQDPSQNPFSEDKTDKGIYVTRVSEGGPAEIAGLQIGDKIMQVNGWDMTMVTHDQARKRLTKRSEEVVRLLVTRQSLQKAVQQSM


Columns and labels:
Assay in all cases: holdup assay
Parameters in all cases: key: below the threshold = too weak to quantify, mostly under pKd 3.1 to 4
Conditions in all cases: plain residues with an end cap or a label only (N-terminal biotin on a linker: ado-ado)
ARHGEF11, O15085 = target: T1, ARHGEF11, O15085
DLG1_1, Q12959 = target: DLG1_1, Q12959
DLG2_3, Q15700 = target: DLG2_3, Q15700
DLG3_2, Q92796 = target: T2, DLG3_2, Q92796
DLG5_1, Q8TDM6 = target: DLG5_1, Q8TDM6
FRMPD1, Q5SYB0 = target: T3, FRMPD1, Q5SYB0
GIPC2, Q8TF65 = target: GIPC2, Q8TF65
GORASP2, Q9H8Y8 = target: GORASP2, Q9H8Y8
GRASP, Q7Z6J2 = target: GRASP, Q7Z6J2
GRID2IP_1, A4D2P6 = target: GRID2IP_1, A4D2P6
Inadl_1, Q8NI35 = target: Inadl_1, Q8NI35
Inadl_10, Q8NI35 = target: Inadl_10, Q8NI35
Inadl_5, Q8NI35 = target: Inadl_5, Q8NI35
Inadl_9, Q8NI35 = target: Inadl_9, Q8NI35
LIN7A, O14910 = target: T4, LIN7A, O14910
LNX1_1, Q8TBB1 = target: LNX1_1, Q8TBB1
MAGI2_2, Q86UL8 = target: MAGI2_2, Q86UL8
MAGI2_3, Q86UL8 = target: MAGI2_3, Q86UL8
MAGI2_6, Q86UL8 = target: MAGI2_6, Q86UL8
MAST2, Q6P0Q8 = target: MAST2, Q6P0Q8
MPDZ_12, O75970 = target: T5, MPDZ_12, O75970
NHERF2_2, Q15599 = target: NHERF2_2, Q15599
NHERF4_4, Q86UT5 = target: NHERF4_4, Q86UT5
PCLO, Q9Y6V0 = target: T6, PCLO, Q9Y6V0
PDZRN4_1, Q6ZMN7 = target: PDZRN4_1, Q6ZMN7
PTPN13_1, Q12923 = target: T7, PTPN13_1, Q12923
PTPN3, P26045 = target: PTPN3, P26045
SHANK1, Q9Y566 = target: T8, SHANK1, Q9Y566
TX1BP3, O14907 = target: T9, TX1BP3, O14907

Sequence of Inadl_10, Q8NI35 (Q8NI35 1673-1763): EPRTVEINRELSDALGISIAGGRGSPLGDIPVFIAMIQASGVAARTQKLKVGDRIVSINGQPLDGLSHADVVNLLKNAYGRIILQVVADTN
Sequence of PTPN3, P26045 (P26045 505-587): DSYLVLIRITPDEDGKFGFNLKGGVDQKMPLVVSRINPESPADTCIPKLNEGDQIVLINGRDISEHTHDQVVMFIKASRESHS
Sequence of MAST2, Q6P0Q8 (Q6P0Q8 1099-1202): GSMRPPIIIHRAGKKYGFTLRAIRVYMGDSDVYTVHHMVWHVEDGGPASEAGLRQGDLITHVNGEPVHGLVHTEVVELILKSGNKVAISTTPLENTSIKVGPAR
Sequence of NHERF2_2, Q15599 (Q15599 142-238): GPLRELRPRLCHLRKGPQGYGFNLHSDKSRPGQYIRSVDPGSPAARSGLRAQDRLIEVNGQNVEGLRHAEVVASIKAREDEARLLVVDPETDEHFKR
Sequence of GIPC2, Q8TF65 (Q8TF65 112-203): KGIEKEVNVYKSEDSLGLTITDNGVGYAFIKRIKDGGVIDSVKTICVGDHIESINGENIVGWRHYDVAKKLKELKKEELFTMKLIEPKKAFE
Sequence of MAGI2_2, Q86UL8 (Q86UL8 410-522): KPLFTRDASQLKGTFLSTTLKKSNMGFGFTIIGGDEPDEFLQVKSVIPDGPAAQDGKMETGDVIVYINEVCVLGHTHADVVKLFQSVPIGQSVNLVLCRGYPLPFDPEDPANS
Sequence of MAGI2_3, Q86UL8 (Q86UL8 600-682): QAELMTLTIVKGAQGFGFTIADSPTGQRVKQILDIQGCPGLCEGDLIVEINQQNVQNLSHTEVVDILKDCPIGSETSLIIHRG
Sequence of Inadl_1, Q8NI35 (Q8NI35 113-229): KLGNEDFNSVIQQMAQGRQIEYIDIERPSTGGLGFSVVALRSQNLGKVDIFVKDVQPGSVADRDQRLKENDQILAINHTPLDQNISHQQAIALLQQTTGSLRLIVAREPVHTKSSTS
Sequence of MAGI2_6, Q86UL8 (Q86UL8 1141-1229): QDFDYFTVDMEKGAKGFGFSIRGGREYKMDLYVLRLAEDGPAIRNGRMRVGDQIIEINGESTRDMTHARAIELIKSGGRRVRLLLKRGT
Sequence of DLG5_1, Q8TDM6 (Q8TDM6 617-713): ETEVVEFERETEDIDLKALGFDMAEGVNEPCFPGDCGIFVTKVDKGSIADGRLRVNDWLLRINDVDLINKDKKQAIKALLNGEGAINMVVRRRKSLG
Sequence of NHERF4_4, Q86UT5 (Q86UT5 464-550): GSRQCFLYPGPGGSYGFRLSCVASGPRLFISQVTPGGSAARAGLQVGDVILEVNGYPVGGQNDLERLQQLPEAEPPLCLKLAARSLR
Sequence of Inadl_9, Q8NI35 (Q8NI35 1530-1615): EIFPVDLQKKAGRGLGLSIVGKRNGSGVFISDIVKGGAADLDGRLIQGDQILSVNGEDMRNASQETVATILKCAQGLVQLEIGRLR
Sequence of Inadl_5, Q8NI35 (Q8NI35 673-780): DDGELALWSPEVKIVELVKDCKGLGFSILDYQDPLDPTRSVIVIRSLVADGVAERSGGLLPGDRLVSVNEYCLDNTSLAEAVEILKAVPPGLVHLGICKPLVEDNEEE
Sequence of LNX1_1, Q8TBB1 (Q8TBB1 261-371): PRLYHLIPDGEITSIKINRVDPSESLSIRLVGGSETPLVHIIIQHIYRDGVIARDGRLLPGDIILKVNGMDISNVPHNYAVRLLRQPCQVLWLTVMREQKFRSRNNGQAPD
Sequence of GRASP, Q7Z6J2 (Q7Z6J2 96-193): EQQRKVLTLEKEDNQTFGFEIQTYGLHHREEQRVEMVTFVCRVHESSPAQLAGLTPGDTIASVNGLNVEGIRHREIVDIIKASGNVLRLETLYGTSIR
Sequence of GRID2IP_1, A4D2P6 (A4D2P6 1-87): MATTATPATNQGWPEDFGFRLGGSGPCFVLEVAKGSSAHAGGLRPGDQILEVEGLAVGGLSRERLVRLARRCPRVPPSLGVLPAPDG
Sequence of PDZRN4_1, Q6ZMN7 (Q6ZMN7 213-318): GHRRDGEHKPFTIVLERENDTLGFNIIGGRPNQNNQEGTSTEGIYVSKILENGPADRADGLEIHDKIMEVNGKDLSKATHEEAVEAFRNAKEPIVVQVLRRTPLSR

Binder | pKd (ARHGEF11, O15085) | pKd (DLG1_1, Q12959) | pKd (DLG2_3, Q15700) | pKd (DLG3_2, Q92796) | pKd (DLG5_1, Q8TDM6) | pKd (FRMPD1, Q5SYB0) | pKd (GIPC2, Q8TF65) | pKd (GORASP2, Q9H8Y8) | pKd (GRASP, Q7Z6J2) | pKd (GRID2IP_1, A4D2P6) | pKd (Inadl_1, Q8NI35) | pKd (Inadl_10, Q8NI35) | pKd (Inadl_5, Q8NI35) | pKd (Inadl_9, Q8NI35) | pKd (LIN7A, O14910) | pKd (LNX1_1, Q8TBB1) | pKd (MAGI2_2, Q86UL8) | pKd (MAGI2_3, Q86UL8) | pKd (MAGI2_6, Q86UL8) | pKd (MAST2, Q6P0Q8) | further results
RRISSLESEV [GRIN2C, Q14957] | 3.98 | 4.86 | 4.44 | 5.27 | below the threshold | below the threshold | 3.65 | below the threshold | below the threshold | below the threshold | below the threshold | below the threshold | below the threshold | below the threshold | below the threshold | 4.34 | 4.58 | 4.11 | 4.31 | 5.07 | pKd (MPDZ_12, O75970): below the threshold; pKd (NHERF2_2, Q15599): below the threshold; pKd (NHERF4_4, Q86UT5): below the threshold; pKd (PCLO, Q9Y6V0): below the threshold; pKd (PDZRN4_1, Q6ZMN7): 4.17; pKd (PTPN13_1, Q12923): below the threshold; pKd (PTPN3, P26045): 4.98; pKd (SHANK1, Q9Y566): below the threshold; pKd (TX1BP3, O14907): 5
CLREWCDAFL [BANF1, O75531] | 3.49 | below the threshold | 3.61 | 4.15 | below the threshold | below the threshold | below the threshold | below the threshold | 3.51 | below the threshold | below the threshold | below the threshold | below the threshold | below the threshold | below the threshold | below the threshold | below the threshold | below the threshold | 4.36 | 5.52 | pKd (MPDZ_12, O75970): 3.67; pKd (NHERF2_2, Q15599): 4.48; pKd (NHERF4_4, Q86UT5): 3.6; pKd (PCLO, Q9Y6V0): below the threshold; pKd (PDZRN4_1, Q6ZMN7): below the threshold; pKd (PTPN13_1, Q12923): 3.58; pKd (PTPN3, P26045): 4.47; pKd (SHANK1, Q9Y566): 4.14; pKd (TX1BP3, O14907): 4.62
PPYRHRNTVV [ERBB4, Q15303] | 4.06 | 4.83 | 4.35 | 4.79 | below the threshold | below the threshold | 3.6 | 4.26 | 4.04 | 3.89 | below the threshold | below the threshold | 3.58 | 3.53 | below the threshold | 4.23 | 4.6 | below the threshold | below the threshold | 4.48 | pKd (MPDZ_12, O75970): below the threshold; pKd (NHERF2_2, Q15599): below the threshold; pKd (NHERF4_4, Q86UT5): below the threshold; pKd (PCLO, Q9Y6V0): below the threshold; pKd (PDZRN4_1, Q6ZMN7): below the threshold; pKd (PTPN13_1, Q12923): below the threshold; pKd (PTPN3, P26045): 3.89; pKd (SHANK1, Q9Y566): below the threshold; pKd (TX1BP3, O14907): 4.13
GSGAVEMESV [AQP6, Q13520] | below the threshold | below the threshold | below the threshold | below the threshold | below the threshold | below the threshold | below the threshold | below the threshold | below the threshold | below the threshold | below the threshold | below the threshold | below the threshold | below the threshold | below the threshold | below the threshold | below the threshold | below the threshold | 3.51 | 4.03 | pKd (MPDZ_12, O75970): below the threshold; pKd (NHERF2_2, Q15599): below the threshold; pKd (NHERF4_4, Q86UT5): below the threshold; pKd (PCLO, Q9Y6V0): below the threshold; pKd (PDZRN4_1, Q6ZMN7): below the threshold; pKd (PTPN13_1, Q12923): below the threshold; pKd (PTPN3, P26045): below the threshold; pKd (SHANK1, Q9Y566): below the threshold; pKd (TX1BP3, O14907): below the threshold
